Measured values: the DeepSol protein solubility set

assay: soluble on expression in E. coli; label from the status in PepcDB or PDB records

Sequence	soluble on expression in E. coli
MEILEEKPKEGKVKIKVETLDDLWHLYHIITPGDVVYAKTLRKQSQRSDSLRPEKVEVIPVFLGVKVEKINFHKFANQLRVTGPIIYASREDVPLGKYHTIAVEPGTIITLQKERWKPYYIERLKEAVEASKRAKVMIVTIEDGEAEMAIVREYGLDFIATIRHNLGGKRYNIKREDEERKFFHDVAKTMKDVMSRENIQRAIVAGPGFYKEDFYKFLKENYPDLASKIVLDDTSMGGRVGIYEVIKRGTVDKVYSESRIANEIKLVEKVIERIAKDEPVAYGMKEVEEAVNYGAVEILLVLDELLKGDNREKVEELMELARSLRSKVVVVSSEHEGGEKLKALGGIAGILRFKIK	soluble
MTTTIEVGMLGLGTVGSGVVERLTRSAAKIEQTQGIRLHLAAVAVNHLNAPRTVQLPIGTRLTDSLTNVVCDRKIQLVIEVMGTVATAKKAIVAALNQGKAVVTANKDLIATAGPELAALAKKQGCDLFYEASVAGGIPILRTLTDSYVTDNVQAVSGIINGTANYMLSAMATGQSYEQALATAQATGYAEADPTNDVAGIDAAYKLMILSRFAFGQELSLPQIAPTGITHLSASVCRLAAENGWQIKLLAQIQRHGSGLYCRVAPVAVPVDQPLSQINGVQNAVAVQSEAIGTSLYTGPGAGSTATANSVLNDVLVAAKHLINGYRMIRNQKRSVSLTVTRFDQLPQTYLGIGPVAPEAVKYYANEADFSVKTIADDCYQITGLSAVKRKKLRANLPLTLIPIAGTTDWKQVTENSITSPINVAI	not soluble
MASGENLAPRDAKVISVILRSLGIEECEPKVIIQLLEFAYRYTTDVLEDALLFAKHTGRTHITTSDVKLALQTKVGRHFVPPPPRQYLSEISTMVNSKPLTIPDGENLIRVPPSSSALLNLDYEVLRKDSDKKRRIY	not soluble
MARLCTHTESGHYLMALDAGTGSVRAVIFDLQGKQIAVGQAEWQHLAVPDVPGSMEFDLAKNWQLACQCIRQALQKAAIPATAIAAVSACSMREGIVIYDSNGEPIWACANVDARAAHEVSELKELYDNTFEEEVYRCSGQTLALSAIPRLLWLAHHRPDIYHRASTVTMISDWMAFMLSGELAVDPSNAGTTGLLDLVTRNWKRSLLQMAGLRSDILSPVKETGTLLGHISQKAAEQCDLQAGTPVIVGGGDVQLGCLGLGVVRPAQTAVLGGTFWQQVVNLPAPVTDPNMNVRINPHVIPGMVQTESISFFTGLTMRWFRDAFCAEEKLIAERLGIDAYSLLEDMASRVPPGAYGVMPIFSDVMRFKRWYHAAPSFINLSIDPEKCNKATLFRALEENAAIVSACNLQQIAAFSGVQADSLVFAGGGSKGKLWSQILADVTGLTVHVPVVKEATALGCAIAAGVGVGVWPSLAETGEKLVRWDREHKPNPENFAVYQQAREKWQAVYQDQRALVDGGLTTSLWKAPGL	not soluble
MYKHILVPVDLNEQGFADKAVQLAVWHAKHSNAEIHLLNVLPGIHMSMVATYFPKDAAAQMKNDVRAQLKAFAEKHIAEEVVYKLHIAEGKPYATILDYAERLGADLIVMPSHKRSRIDKVMLGSVASKVVENSPINVMVVKPQG	not soluble
LKLPDMRDVVGQPEARFAAEVAAAGGHHMLMIGPPGSGKSMIAERIPSLLPELSPQQMIEATAVHSVVGRTFSGPVSRAPFISPHHNVSKAALLGGGSGSPLPGAISLAHHGVLFLDEVSEIPASILDSLRTPLEYGSIRIIRSRHDVTFPAQFQLILAANPCRCG	not soluble
MYKIVSDSACDLSKEYLEKHDVTIVPLSVSFDGETYYRDGVDITRDECYQRMVDDPKLFPKTSLPSVESYADVFRSFVEQGFPVVCFTITTLFSGSYNSAINAKSLVLEDYPDANICVIDSKQNTVTQALLIDQFVRMLEDGLSFEQAMSKLDALMASARIFFTVGSLDYLKMGGRIGKVATAATGKLGVKPVIIMKDGDIGLGGIGRNRNKLKNSVLQVAKKYLDENNKDNFIVSVGYGYDKEEGFEFMKEVESTLDVKLDSETNVAIGIVSAVHTGPYPIGLGVIRKYETL	soluble
MSLRVVLKLGTSVLTAGTDRLHRPRLVDLMRDIAAVSAQGHEVVLVSSGAVTAGWEALGFPPRERTLAEKQLLAAVGQVQLMHLYTSLAELYGLRSAQLLLTADDFRERTRYLNARTTLEGCLSRGVLPVINENDTVAVEQIKVGDNDTLSAFVANLVEADLLLILTDAPGLYTADPRTHPDATLIPVVERVTPDIWALAGGAGSHRGTGGMHTKIQAAEIATRAGTPVVIAPGDLPEALRRVVDGEALGTRFLAHGTRLEARKRWILAEIAHGRLLLDGGAAQAVRERGSSLLPAGIRQVEGDFERGHTVRLLAPDGQELGRGLTRYRADDLRRVCGHHSREIEALLGYTYGEEAVHRDDLVLLEGHHHHHH	soluble
